Reference: article PMC9781616

Target: Echovirus 11 (E11) strain 18-2135 full virus particle (capsid of VP1-4) (echovirus 11 (strain 18-2135))
Assay: cryo-EM structure

**Q.** For “Decay-accelerating factor (DAF) full-length ectodomain, short consensus repeats SCR 1-4 (from UniProt P08174 35-285) (receptor)”, which DAF occupancy is on record?
**A.** 31.5%

**Q.** And the stoichiometry N (DAF molecules per particle)?
**A.** 20
